Measured values published in patent US11787850B2, “Peptidic TGF-beta antagonists” (priority 2015, dated 2023).

Columns and labels:
[1] = Size-exclusion chromatography on Superdex Peptide 10/300GL column; type: physicochemical; details: for formation of aggregates by size-exclusion chromatography: peptide in PBS, Superdex Peptide 10/300GL, 0.6 ml/min; for Aggregation?: size-exclusion chromatography, peptide dissolved in PBS
Method: Approximately 200 μg of each peptide X (40 amino acids), X-1 (28 amino acids), peptide A (161 amino acids), P11 (11 amino acids), P16 (16 amino acids), P21 (21 amino acids, P16-2 (16 amino acids, scrambled sequence control), X-3 (16 amino acids) and X-4 (11 amino acids) were dissolved in phosphate-buffered saline (PBS) and loaded onto a Superdex Peptide 10/300GL column. The column was eluted with PBS at a flow rate of 0.6 mL/min and eluents were analyzed for peptide content by measuring relative absorbance at a wavelength of 215 nm. (FIGS. 3A and 3B) The data is plotted with relative absorbance (Y-axis) against elution volume (X-axis). Peptides 1-9 are color coded (A—peptides (1) to (5); B (peptides (6) to (9)). As shown on panel A, peptide X (peptide 1, black line) elution profile indicated two major peaks at approximately 8 mL and 11 mL which correspond to molecular weights greater than 12.4 kDa. The theoretical molecular weight of peptide X is 4.7 kDa which is expected to elute from the column at approximately 15 mL. Under the conditions tested, peptide X existed as high molecular weight aggregates with minimal soluble (monomeric) form. On the other hand, P16 (peptide 5, green line) elution profile indicated a broad peak between 14-22 mL which is expected to contain peptides of between 0.1 and 6 kDa and is consistent with its theoretical molecular weight of 2.01 kDa.
FIG. 4 illustrates the standard curve used for size-exclusion chromatography of standard peptides using the Superdex Peptide 10/300 GL column (results provided in FIG. 3). A pool of standard peptides of various molecular weights (1. cytochrome c (Mr 12.384 kDa) 1 mg/mL; 2. aprotinin (Mr 6.512 kDa) 2 mg/mL; 3. vitamin B12 (Mr 1.355 kDa) 0.1 mg/mL; 4. (Gly)3 (Mr 0.189 kDa) 0.1 mg/mL; 5. Gly (Mr 0.075 kDa) 7.8 mg/mL) were subjected to size-exclusion chromatography using the Superdex Peptide 10/300 GL column (flow rate 0.5 ml/min at room temperature, sample volume of 50 μL, eluent 0.05M phosphate, 0.15 M NaCl, ph 7.0). The resulting chromatogram (absorbance at 215 nm (in mAU, left Y axis) and conductivity (in mS/cm, right Y axis, in function of volume of elution (in mL)) indicates the elution profiles of the above peptides with high MW peptides eluting in earlier fractions and lower MW peptides eluting in later fractions as expected. The molecular weights of peptides were plotted against elution volume generating a standard curve (not shown).
More specifically, approximately […] of each peptide X (40 amino acids), X-1 (28 amino acids), peptide A (161 amino acids), P11 (11 amino acids), P16 (16 amino acids), P21 (21 amino acids, P16-2 (16 amino acids, scrambled sequence control), X-3 (16 amino acids) and X-4 (11 amino acids) were dissolved in phosphate-buffered saline (PBS) and loaded onto a Superdex Peptide 10/300GL column. The column was eluted with PBS at a flow rate of 0.6 ml/min and eluants were analyzed for peptide content by measuring relative absorbance at a wavelength of 215 nm. The data were plotted with relative absorbance (Y-axis) against elution volume (X-axis). […] The theoretical molecular weight of peptide X is 4.7 kDa which is expected to elute from the column at approximately 15 mL. […] P16 (peptide 5) elution profile indicated a peak between 14-22 mL which was expected to contain peptides of between 0.1 and 6 kDa and is consistent with its theoretical molecular weight of 2.01 kDa.
More specifically, a pool of standard proteins of various molecular weights were subjected to size-exclusion chromatography using the Superdex Peptide 10/300 GL column. The resulting chromatogram indicated the elution profiles of the peptides with high molecular weight peptides eluting in earlier fractions and lower molecular weight peptides eluting in later fractions as expected. The molecular weights of peptides were plotted against elution volume generating a standard curve (not shown) and was used to calculate molecular weights of the CD109-based peptides. […]

[2] = test system: TGF-β1-induced PAI-1 protein production in A431 cells; experiment: Western blot for PAI-1 in A431 cells; type: cell-based; details: 10 nM peptide, 100 pM TGF-β1, 24 hrs (FIG. 7)
Method: FIG. 7 illustrates that the small molecular weight CD109-based peptide P16 (but not P11 or P16-1) inhibits TGF-β1-induced PAI-protein production. A431 cells were treated without (lane 1) or with 100 pM of TGF-β1 (lanes 2-6) in the absence (lane 2) or presence of 10 nM of P11 (11 aa peptide, lane 3), P16 (16 aa peptide, lane 4), P16-1 (scrambled peptide of 16 aa, lane 5) or Tris buffer (buffer, lane 6) for 24 hrs. Cell lysates were analyzed by Western blot for PAI-1 ([…]) protein levels and normalized to GAPDH protein levels (loading control). In the conditions tested, P16 (but not P11) inhibited TGF-β1-induced PAI-1 expression.
A431 cells were treated for 18 hours without (−) or with (+) 100 pM TGF-β1 in the presence or absence of Peptide X or P16. The peptides were previously dissolved in Tris buffer and left untreated or treated with DMSO prior to addition to the cells. Cell lysates were analyzed by Western blot for PAI-1 (plasminogen activator inhibitor-1) protein expression (top panel) and GAPDH served as a loading control (bottom panel). PAI-1 was not detected in untreated cells (lane 1).
A431 cells were grown in 6-well plates to 70-80% confluency and serum-starved overnight. Cells were washed with PBS and treated with or without TGF-β1 in presence or absence of various CD109-based peptides as indicated in the figure legends. Cells were solubilized with 500 μl of lysis buffer (50 mM Tris, pH 7.5, 150 mM NaCl, 50 mM NaF, 50 mM β-glycerophosphate, 1 mM sodium orthovanadate, 1 mM dithiothreitol, 5 mM EDTA, pH 8.0, 1% Nonidet P-40, 10% glycerol, 10 μM phenylmethylsulfonyl fluoride, 200 μg/ml bovine serum albumin, 1 μg/ml leupeptin, […] soybean trypsin inhibitor, 10 μg/ml benzamide, and 2 μg/ml pepstatin) for 30 min at 4° C. with mild agitation. Cell lysates were collected and centrifuged for 10 min at 10,000×g. The supernatants were collected and protein concentrations were determined using the Bio-Rad protein assay kit. Lysates containing equivalent protein concentrations were mixed with 0.2 volume of 5× electrophoresis sample buffer containing 5% β-mercaptoethanol and boiled for 5 min. Samples were resolved on 7.5% SDS-polyacrylamide gels and transferred to nitrocellulose membranes. Membranes were blocked for 3 h in blocking buffer (30 mM Tris, pH 7.5, 150 mM NaCl, and 0.05% (w/v) Tween 20™ (Tris-buffered saline/Tween) containing 5% (w/v) skim milk powder). The blot was incubated overnight at 4° C. with a 1:1000 dilution of anti-PAI-1 antibody (BD Biosciences). Blots were washed with Tris-buffered saline/Tween and incubated for 45 min at room temperature with a 1:5000 dilution of secondary antibody conjugated to horseradish peroxidase (Pierce). Chemiluminescence detection of the immune complexes was performed using the ECL system (Amersham Biosciences) according to the manufacturer's instructions. The membranes were stripped and reprobed with an anti-GAPDH antibody to confirm equal protein loading.
A431 cells were treated without (lane 1) or with 100 pM of TGF-β1 (lanes 2-6) in the absence (lane 2) or presence of 10 nM of P11 (11 aa peptide, lane 3), P16 (16 aa peptide, lane 4), P16-1 (scrambled peptide of 16 aa, lane 5) or Tris buffer (buffer, lane 6) for 24 hrs. Cell lysates were analyzed by Western blot for PAI-1 ([…]) protein levels and normalized to GAPDH protein levels (loading control).
A431 squamous cell carcinoma cells were treated for 18 hours without (−) or with (+) 100 pM TGF-β1 in the presence or absence of Peptide X or P16. The peptides were dissolved in Tris buffer and left untreated or treated with 0.5% DMSO prior to addition to the cells. Cell lysates were analyzed by Western blot for PAI-1 ([…]) protein expression (top panel) and GAPDH served as a loading control (bottom panel).

[3] = test system: TGF-β1-induced Smad3-driven (CAGA12-lux) transcriptional activity; experiment: Luciferase reporter assay in HEK293-(CAGA)12 cells; type: cell-based
[4] = test system: TGF-β1-induced Smad3-driven (CAGA12-lux) transcriptional activity; experiment: Luciferase reporter assay in HEK293-(CAGA)12 cells; type: cell-based; details: 100 pM TGF-β1, 18 hours
Method: FIGS. 5A and 5B illustrate that some small molecular weight CD109-based peptides (Peptide A, P28, P21 and […]) inhibit TGF-β1-induced Smad3-driven transcriptional activity. […] Cell lysates were analyzed for luciferase activity and data are expressed as mean±standard deviation of relative light units (RLU). […] Under the conditions tested, peptide A, P28, P21 and P16 inhibited TGF-β1-induced transcriptional (CAGA12-lux) activity.
FIG. 6 illustrates that the small molecular weight CD109-based peptide P16 (but not P16-2, P11 or X-4) inhibit TGF-β1-induced Smad3-driven transcriptional activity. HEK293 cells stably transfected with the Smad3-responsive CAGA12-lux luciferase reporter were treated for 18 hours without (−) or with (+) […] TGF-β1 in the presence or absence of 10 nM of P16-2 (16 aa scrambled control), P11 (11 aa sequence), P16 (16 aa), X-4 (11 aa) or Tris-buffer (buffer control) as indicated. Cell lysates were analyzed for luciferase activity and data are expressed as mean±standard deviation of luciferase activity. Results are shown as luciferase activity for the peptides used.
FIG. 8 illustrates that DMSO treatment enhances the TGF-β inhibitory activity of Peptide X but not P21 or P16. HEK293 cells stably transfected with the Smad3-responsive CAGA12-lux luciferase reporter were treated for 18 hours without (−) or with (+) 100 pM TGF-β1 in the presence or absence of Peptide X (PX), P21 or P16. The peptides were previously dissolved in Tris buffer and left untreated or treated with DMSO prior to addition to the cells. Addition of Tris buffer or DMSO alone served as additional controls. Cell lysates were analyzed for luciferase activity and data are expressed as mean±standard deviation of luciferase activity. Results are shown as luciferase activity. […] P16 and P21 inhibited TGF-β1-induced CAGA12-lux activity and these effects were not enhanced by DMSO treatment. […]
FIG. 25 is a graph showing the ability of CD109-based peptides to inhibit TGF-β-induced, Smad3-driven transcriptional activity. HEK293 cells stably transfected with the Smad3-responsive CAGA12-lux luciferase reporter were treated for 18 hours without (−) or with (+) 100 pM TGF-b1 in the presence or absence of 10 nM of P16, P16.2, peptide A, P15, P14, P13, P12, P11, peptide X, P21, or 2% NH4OH buffer (buffer control) as indicated. Cell lysates were analyzed for luciferase activity and data are expressed as mean±standard deviation of luciferase activity.
HEK293 cells stably transfected with the Smad3-responsive CAGA12-lux luciferase reporter construct were incubated with dimeric or monomeric forms of peptide A as indicated and treated with 100 pM TGF-b overnight. Cell lysates were analyzed for luciferase activity. Data are presented as fold-activation compared to TGF-b1 treatment alone (scaled to 1.0). M+D, mixture of monomer and dimer.
Luciferase reporter assays were performed using a HEK293-(CAGA)12 cell line that stably expresses a TGF-β/Smad3-responsive (CAGA)12-luciferase reporter gene [Cash et al. 2013]. HEK293-(CAGA)12 cells were grown in 24-well plates to 70-80% confluency and serum-starved overnight. Cells were washed with PBS and treated with or without TGF-β1 in presence or absence of various CD109-based peptides as indicated in the figure legends. Cells were then washed twice with cold PBS and solubilized in 100 μl of Passive Lysis Buffer (Promega) for 30 min at 4° C. The cell lysates were assayed for luciferase and β-galactosidase activities using commercially available kits (BD Biosciences).
HEK293 cells stably transfected with the Smad3-responsive CAGA12-lux luciferase reporter were treated for 18 hours without (−) or with (+) 100 pM TGF-β1 in the presence or absence of 10 nM (FIG. 5A) or 5 nM (FIG. 5B) of peptide A (Pep A, 161 aa), P28 (28 aa peptide), P21 (21 aa peptide), P16 (16 aa peptide), P16.2 scrambled peptide (16 aa, scrambled P16 sequence) or Tris-buffer (negative control for peptides) as indicated. […]

[5] = 10 nM peptide, 100 pM TGF-β1, 18 hours (FIG. 6)
[6] = 10 nM or 5 nM peptide, 100 pM TGF-β1, 18 hours (FIG. 5)

Row | Sequence | formation of aggregates by size-exclusion chromatography [1] | Aggregation? [1] | inhibition of TGF-β1-induced PAI-1 protein production [2] | inhibition of TGF-β1-induced CAGA12-lux activity [3, 5] | inhibition of TGF-β1-induced CAGA12-lux activity, peptide pre-treated with DMSO ([4]; 0.5% DMSO pre-treatment (FIG. 8)) | inhibition of TGF-β1-induced CAGA12-lux activity, peptide in Tris buffer left untreated ([4]; no DMSO (FIG. 8)) | inhibition of TGF-β1-induced CAGA12-lux activity [3, 6]
1 | ETWIWLDTNMG [Peptide P11] | did not | Not aggregated | not | did not | – | – | –
2 | ETWIWLDTNMGSRIYQEFEVT [Peptide P21] | did not | Not aggregated | – | – | not enhanced | inhibited | inhibited
3 | GSRIYQEFEVT [Peptide X-4] | did not | Not aggregated | – | did not | – | – | –
4 | ILNTWMDSTQIGYRWE [Peptide P16-1, scrambled peptide of 16 aa, control, reference compound] | – | – | no effect | – | – | – | –
5 | LDTNMGSRIYQEFEVT [Peptide X-3] | formed aggregates | Aggregated | – | – | – | – | –
6 | WINMDTGQLIEQRYTS [Peptide P16-2, reference compound] | did not | Not aggregated | – | no effect | – | – | no inhibitory effect
